Publication PMC5374532, “Rational mutagenesis by engineering disulphide bonds improves Kluyveromyces lactis beta-galactosidase for high-temperature industrial applications” (Scientific Reports, 2017)

Tests used:
[1] = biological target: Kluyveromyces lactis β-galactosidase mutant R116C/T270C (Kluyveromyces lactis) (UniProt P00723); assay: AUC; sedimentation velocity, 0.2 mg/mL enzyme, 50 mM Tris-HCl, 150 mM NaCl, pH 7.4, 48 k rpm, c(s) distribution (SEDFIT); self-association, shares of monomer, dimer, trimer and tetramer
[2] = biological target: Kluyveromyces lactis β-galactosidase mutant R116C/T270C (Kluyveromyces lactis) (UniProt P00723); assay: AUC; sedimentation velocity, 0.1 mg/mL enzyme, 50 mM Tris-HCl, 150 mM NaCl, pH 7.4, 48 k rpm, c(s) distribution (SEDFIT); self-association
[3] = biological target: Kluyveromyces lactis β-galactosidase mutant R116C/T270C/G818C (Kluyveromyces lactis) (UniProt P00723); assay: AUC; sedimentation velocity, 0.2 mg/mL enzyme, 50 mM Tris-HCl, 150 mM NaCl, pH 7.4, 48 k rpm, c(s) distribution (SEDFIT); self-association, shares of monomer, dimer, trimer and tetramer
[4] = biological target: Kluyveromyces lactis β-galactosidase mutant R116C/T270C/G818C (Kluyveromyces lactis) (UniProt P00723); assay: AUC; sedimentation velocity, 0.1 mg/mL enzyme, 50 mM Tris-HCl, 150 mM NaCl, pH 7.4, 48 k rpm, c(s) distribution (SEDFIT); self-association

percent of the protein as dimer [1]	percent of the protein as monomer [1]	percent of the protein as tetramer [1]	percent of the protein as trimer [1]	increase in monomeric forms at 0.1 mg/mL against 0.2 mg/mL [2]	percent of the protein as dimer [3]	percent of the protein as monomer [3]	percent of the protein as tetramer [3]	percent of the protein as trimer [3]	increase in monomeric forms at 0.1 mg/mL against 0.2 mg/mL [4]	Substance
20.9%	21.9%	49.3%	7.9%	0.8%	–	–	–	–	–	Kluyveromyces lactis β-galactosidase mutant R116C/T270C (from UniProt P00723 2-1025) (enzyme)
–	–	–	–	–	57.2%	7.3%	23%	12.6%	2.1%	Kluyveromyces lactis β-galactosidase mutant R116C/T270C/G818C (from UniProt P00723 2-1025) (enzyme)
